Data taken from article PMC9882608, “Structure of an endogenous mycobacterial MCE lipid transporter” (Research Square, 2023).

Target: the molecule itself
Test: cryo-EM structure

B1: MceG-GFP (MceG, MSMEG_1366, chromosomally tagged with GFP at its C-terminus) (enzyme, UniProt A0QS64 1-360, looked up)
chain: MGVQIDVTGLSKSFGSSKIWEDVTMSIPAGEVSVLLGPSGTGKSVFLKSLIGLLRPERGSIVIDGTDILQCSAKELYEIRTLFGVLFQDGALFGSMNIYDNTAFPLREHTKKSESEIRKIVMEKLDLVGMPNDGHKFPGEISGGMRKRAGLARALVLDPEIILCDEPDSGLDPVRTAYLSQLLIDINAQIDATVLIVTHNINIARTVPDNMGMLFRKQLVMFGPREVLLTSEEPVVKQFLNGRRIGPIGMSEEKDEATAAAEQALVDAGQHDGGVEEIEGVPPQLQATPGMPERKAVARRKARVREILHTLPPAAQAAILEELDRDQPQLSAPTTQTAATAPVENYDDSPTGVIEVPKQA
notes: MceG, ATPase of the MCE ABC transporters, Mycobacterium smegmatis, locus MSMEG_1366; endogenous protein; printed residue numbers run to 360 (residues 1, 256-280 and 326-360 not modelled); also called GFP-tagged MceG; MceG ATPase; not shown: eGFP, C-terminal, kept
For B1, the “stoichiometry N” value was 2.
